One block for each molecule: values may come before it.
Columns and labels:
[1] = test system: NPC1-deficient, NPC2-deficient, apparently normal, and U18666A-treated normal cells; experiment: GC/MS measurement of total free cholesterol; assay type: cell-based, human; details: normal cells treated with 1 μM U18666A
Procedure: FIGS. […]. Charts showing GC/MS measurement of cyclodextrin effects on total free cholesterol levels in NPC1-deficient, NPC2-deficient, apparently normal, and U18666A-treated normal cells. […] Cells were treated with 0.9 mM MβCD or HPβCD for 1 day in growth medium. At the end of the experiment, cellular lipids were extracted and analyzed by GC/MS. Data represent averages±SEM of two independent experiments normalized to control average value for each experiment.

[2] = test system: U18666A-treated GM05659 cells; experiment: LSO filipin assay in U18666A-treated apparently normal fibroblasts; details: GM05659 treated with various concentrations of U18666A (FIG. 14A)
Procedure: Cells were plated in 384-well assay plates at a density to produce ≈80-90% confluency by experiment completion and treated with U18666A at indicated concentrations for 24 hour before addition of various concentrations of either MβCD or HPβCD for another 24 hours, during which indicated U18666A levels were maintained. At the end of the experiment, cells were fixed with 1% PFA and stained with 50 μg/mL filipin. Images were acquired using an ImageXpressMICRO imaging system with a 10× objective. […] (A) Cholesterol accumulation, as measured by the LSO filipin assay, at different concentrations of U18666A. MβCD (B) and HPβCD (C) LSO filipin dose-response curves at three different U18666A concentrations. […] Data represent averages±SEM of two independent experiments (n=12 for control and n=6 for treated, where n is total number of wells per condition used for quantification).

NPC (GM03123) Fbs [3] = experiment: rhASM enzyme replacement, LSO filipin quantification in NPC fibroblasts; assay type: cell-based, human
Procedure: FIGS. 27 A-C. Graph showing the effect of SMase restoration on human NPC1 cells (exogenous acid SMase decreases cholesterol accumulation in LSOs in human NPC fibroblasts). Parallel sets of human WT (GM05659) and NPC (GM03123) Fbs were incubated in medium alone or, in the case of the NPC fibroblasts, medium containing 3 μg/mL recombinant human acid SMase (rhASM). Two days later, the cells were washed thoroughly with PBS and either lysed and assayed for acid SMase activity (A), or fixed and stained with filipin for imaging and quantification (B). […] Scale bar, 15 μm. The quantified data in the bar graph represent LSO ratios normalized to the WT Fb values (average of 60-66 images from three independent experiments±SEM). C) Another human NPC Fbs (GM18453) was incubated with 3 μg/mL rhASM for 24 h, unlike 48 h in NPC1 (GM03123). Quantified data shown in bar chart are the normalized LSO ratios (normalized to untreated NPC Fbs) in the presence and absence of recombinant enzyme. Data represents an average from two independent experiments and 30-36 images±SEM, p<0.0001.
(§1) FIG. 29 A,B. Decreased LSO cholesterol accumulation and increased acid SMase activity are achieved in NPC1 human fibroblasts by increasing amounts of rhASM. WT (GM5659) and NPC (GM03123) Fbs were incubated with 0, 0.2 and 1.8 μg/mL rhASM for 24 hours. To remove surface-bound label, the cells were further incubated for 15 minutes with growth medium without the enzyme. The cells were washed thoroughly with PBS and either lysed and assayed for acid SMase activity (A) or fixed and stained with filipin for imaging and quantification (B). Each data point in plot (A) is representative of three wells in an experiment, p<0.05. Plot (B) represents LSO ratios normalized to the untreated NPC Fb […] values (average of 16-20 images from two independent experiments±SEM), p<0.005.
(§2) Normal (GM05659) and NPC1 human fibroblasts (GM03123) were incubated in a medium containing 3 μg/mL recombinant human acid SMase (rhASM). Two days later, the cells were washed thoroughly with PBS, and either lysed and assayed for acid SMase activity or fixed and stained with filipin for imaging and quantification. NPC1 human fibroblasts GM18453 were treated with 3 μg/mL rhASM for 24 h before fixing, staining with filipin, imaging and quantifying.
Cells were plated onto poly-d-lysine-coated 35-mm coverslip dishes in a medium containing 10% FBS. After 1-2 days of growth, the cell monolayers were washed three times with PBS and then fixed with 3% paraformaldehyde in PBS for 20 minutes at room temperature, followed by three more washes with PBS. To detect free cholesterol, filipin was added to the fixed cells (50 μg/mL in PBS) for 45 minutes at room temperature. Finally, the cells were washed three times with PBS, and images were acquired immediately after labeling.
(§3) Images were analyzed using Metamorph (version 7.0 r4) image analysis software from Molecular Devices (MDS Analytical Technologies). All images were corrected for background before analysis. The average filipin and LSO ratio was calculated as described previously (Pipalia 2006). The LSO ratio was calculated based on low-thresholded region and high-thresholded intensities in the filipin image as described previously (Pipalia 2006).

NPC (GM03123) Fbs [4] = experiment: Acid SMase activity assay after rhASM, NPC fibroblasts; assay type: cell-based, human
Procedure: as §1
Cell extracts were prepared by scraping cells into ice-cold 250 mM sucrose, followed by sonication on ice twice for 10 seconds each using a Branson Sonifier 450. […]
as §2

WT Fbs (GM05659) [5] = experiment: rhASM, LSO filipin quantification in wild-type fibroblasts; assay type: cell-based, human; details: all doses of rhASM tested (0, 0.2, 1.8 μg/mL)
Procedure: as §1
Cells were plated onto poly-d-lysine-coated 35-mm coverslip dishes in a medium containing 10% FBS. […]
as §3, with “All images were corrected for background before analysis.” left out

WT Fbs (GM05659) [6] = experiment: Acid SMase activity assay after rhASM, wild-type fibroblasts; assay type: cell-based, human; details: 24 hours
Procedure: as §1
Cell extracts were prepared by scraping cells into ice-cold 250 mM sucrose, followed by sonication on ice twice for 10 seconds each using a Branson Sonifier 450. To prepare the substrate, solvent from 0.1 μCi [cholinemethyl-^14C] […] The assay solution, which was added to 1.5-mL microcentrifuge tubes on ice, consisted of 50 μL assay buffer, 20 μL substrate and 20 μL of cell extract. After incubation for 60 minutes at 37° C., the reaction was terminated by adding 125 μL of chloroform:methanol (2:1, v/v). The assay tubes were vortexed for 1 minute and then centrifuged 5000×g for 5 minutes at 4° C. […]

[7] = test system: WT (GM05659) and NPC (GM03123) human fibroblasts; experiment: Sub-cellular localization and uptake of Alexa555-conjugated rhASM; assay type: cell-based; details: data not shown
Procedure: WT (GM5659) and NPC (GM03123) Fbs were incubated with or without 3 μg/mL Alexa555-conjugated rhASM for 24 hours. To remove surface-bound label, the cells were further incubated for 15 min with a growth medium without the enzyme. Finally, the cells were washed with PBS, fixed with 1.5% PFA, and stained with filipin for imaging and quantification. […] Color overlays for filipin (green) and rhASM-Alexa555 (red) are shown in panels (C, F and I). The images in the inset are the zoomed color overlays of the region marked in (C, F and I). Scale bar=10 μm.
For identifying the localization of rhASM in the cells, recombinant enzyme was conjugated with Alexa555 (Invitrogen) according to the manufacturer's protocol. Normal (GM05659) and NPC1 human fibroblasts (GM03123) were incubated in a medium containing 3 μg/mL Alexa555-rhASM for 24 h prior to fixing and staining with filipin. Images were acquired using standard UV and TRITC filters for filipin and Alexa555-labeled rhASM, and quantified.
To ascertain whether exogenously added rhASM was localized and processed in late endosomal organelles, WT (GM05659) and NPC (GM03123) human fibroblasts were incubated for 24 hours in the absence or presence of 3 μg/mL of Alexa555-labeled rhASM. […] The cells were then washed, fixed and stained with filipin for imaging and quantification. […]

Molecule: CCN(CC)CCO[C@H]1CC[C@@]2(C)C(=CC[C@@H]3[C@@H]2CC[C@]2(C)C(=O)CC[C@@H]32)C1 [U18666A, 3-β-[(2-diethyl-amino)ethoxy]androst-5-en-17-one]
- free cholesterol per μg cell protein [1]: 0.074 ± 0.006 pmol/µg
- extent of cholesterol accumulation in LSOs [2]: dose dependent

- decrease in LSO filipin intensity (NPC (GM03123) Fbs [3]; 0.2 μg/mL rhASM, 24 hours): ~20%
- reduction of LSO filipin intensity (NPC (GM03123) Fbs [3]; 1.8 μg/mL rhASM, 24 hours): ~60%
- decrease in LSO filipin intensity (NPC (GM03123) Fbs [3]; 3 μg/mL rhASM (FIG. 27)): 65-70%
- residual cholesterol accumulation (NPC (GM03123) Fbs [3]; excess acid SMase, NPC1 cells): 25-30%
B1: rhASM: Recombinant human acid SMase prepared from transfected CHO cells (protein, UniProt P17405 47-631, looked up)
Sphingomyelin …: LALSDSRVLWAPAEAHPLSPQGHPARLHRIVPRLRDVFGWGNLTCPICKGLFTAINLGLKKEPNVARVGSVAIKLCNLLKIAPPAVCQSIVHLFEDDMVEVWRRSVLSPSEACGLLLGSTCGHWDIFSSWNISLPTVPKPPPKPPSPPAPGAPVSRILFLTDLHWDHDYLEGTDPDCADPLCCRRGSGLPPASRPGAGYWGEYSKCDLPLRTLESLLSGLGPAGPFDMVYWTGDIPAHDVWHQTRQDQLRALTTVTALVRKFLGPVPVYPAVGNHESTPVNSFPPPFIEGNHSSRWLYEAMAKAWEPWLPAEALRTLRIGGFYALSPYPGLRLISLNMNFCSRENFWLLINSTDPAGQLQWLVGELQAAEDRGDKVHIIGHIPPGHCLKSWSWNYYRIVARYENTLAAQFFGHTHVDEFEVFYDEETLSRPLAVAFLAPSATTYIGLNPGYRVYQIDGNYSGSSHVVLDHETYILNLTQANIPGAIPHWQLLYRARETYGLPNTLPTAWHNLVYRMRGDMQLFQTFWFLYHKGHPPSEPCGTPCRLATLCAQLSARADSPALCRHLMPDGSLPEAQSLWPRPLFC
- LSO filipin fluorescence (NPC (GM03123) Fbs [3]; 3 μg/mL rhASM, two days (FIG. 27B)): dramatically decreased LSO filipin fluorescence
- acid SMase activity (NPC (GM03123) Fbs [4]; 0.2 μg/mL rhASM, 24 hours): increased acid SMase activity significantly
- defect in acid SMase activity (NPC (GM03123) Fbs [4]; 3 μg/mL rhASM, two days (FIG. 27A)): corrected
- LSO filipin staining (WT Fbs (GM05659) [5]): remained low and constant
- acid SMase activity (WT Fbs (GM05659) [6]; 0.2 μg/mL rhASM): increased slightly
- acid SMase activity (WT Fbs (GM05659) [6]; 1.8 μg/mL rhASM): did not increase further

B2: rhASM-Alexa555: recombinant enzyme conjugated with Alexa555 (conjugate, UniProt P17405 47-631, looked up)
Sphingomyelin …: LALSDSRVLWAPAEAHPLSPQGHPARLHRIVPRLRDVFGWGNLTCPICKGLFTAINLGLKKEPNVARVGSVAIKLCNLLKIAPPAVCQSIVHLFEDDMVEVWRRSVLSPSEACGLLLGSTCGHWDIFSSWNISLPTVPKPPPKPPSPPAPGAPVSRILFLTDLHWDHDYLEGTDPDCADPLCCRRGSGLPPASRPGAGYWGEYSKCDLPLRTLESLLSGLGPAGPFDMVYWTGDIPAHDVWHQTRQDQLRALTTVTALVRKFLGPVPVYPAVGNHESTPVNSFPPPFIEGNHSSRWLYEAMAKAWEPWLPAEALRTLRIGGFYALSPYPGLRLISLNMNFCSRENFWLLINSTDPAGQLQWLVGELQAAEDRGDKVHIIGHIPPGHCLKSWSWNYYRIVARYENTLAAQFFGHTHVDEFEVFYDEETLSRPLAVAFLAPSATTYIGLNPGYRVYQIDGNYSGSSHVVLDHETYILNLTQANIPGAIPHWQLLYRARETYGLPNTLPTAWHNLVYRMRGDMQLFQTFWFLYHKGHPPSEPCGTPCRLATLCAQLSARADSPALCRHLMPDGSLPEAQSLWPRPLFC
modifications: Alexa555 label
- effect of Alexa555 conjugation on enzyme activity [7]: did not affect its activity

— patent US10124019B2, “Compositions and their use for removing cholesterol” (Cornell University, priority 2009, dated 2018)
